What was measured:
[1] = target: T1, recombinant human His-tagged TLR3 extracellular domain protein (R&D systems, #1487-TR-050) (human, UniProt O15455 24-704); test: ELISA, His-tagged TLR3 or TLR4 on Ni-NTA plates, hybridoma supernatant, goat anti-mouse F(ab) IgG-HRP
T1 construct: Bought protein; also called recombinant human TLR3; rec TLR3; not shown: His tag
Excerpt: Immune spleen cells were fused with X63.Ag8.653 immortalized B cells, and cultured in the presence of irradiated spleen cells. 40 culture plates were obtained and evaluated in a first screen for TLR3 binding using an ELISA developed for detection of binding to TLR3. Briefly, His-tagged recombinant TLR3 protein (R&D systems, #1487-TR-050) was coated on Ni-NTA 96-wells plates (Qiagen). […] Positive supernatants were selected and tested for lack of binding to TLR4. Briefly, His-tagged rec TLR4 protein (R&D systems, #3146-TR-050) were coated on Ni-NTA 96-wells plates (Qiagen). […] TLR4 was chosen as a 2nd screen in order to discriminate among wells selected in the 1st screen, where anti-His specific antibody from TLR3 specific antibody were used.
Cloning of hybridomas of potential interest. 42 potentially interesting hybridomas selected from the initial screening were cloned by limiting dilution techniques in 96-wells plates, and 304 subclones were tested in a series of screens as follows. […] All supernatants yielding a ratio above 10 for DO obtained in TLR3 ELISA to DO obtained in TLR4 ELISA were selected as specific for TLR3. Among them was supernatant from well F9 of plate 40 (40F9).

[2] = target: T2, human TLR4 expressed in 293T cells (293T-TLR4 transfectants) (human, UniProt O00206 24-839); test: IHC on paraffin-embedded cell pellet, ENVISION amplification
T2 construct: also called Toll-Like Receptor 4
Procedure: 40F9.6 was tested on tonsil tissue with different detection systems, in order to identify the detection system yielding the strongest signal, with the lowest […]. The ENVISION System commercialized by DAKO A/S (Glostrup, Denmark) was selected. ENVISION is an amplification system based on an HRP-labeled polymer conjugated to secondary antibodies. Tissue sections were dewaxed and rehydrated before the antigen unmasking procedure in boiled citrate buffer (pH6). Endogenous peroxydases were blocked by a 3% solution of H₂O₂.
40F9.6 was tested in a series of paraffin-embedded samples.

B1: monoclonal antibody 40F9 (clone 40F9.6) (antibody, mouse IgG1, V domains shown)
VH: QIQLVQSGPELKKPGETVKISCKASGYTFTNYGMNWVKQAPGKGLKWMGWINANTGEPTYAEEFKGRFAFSLETSDSTAYLQINNLKNEDTATYFCASDYDYWGQGTTLTVSS
VL: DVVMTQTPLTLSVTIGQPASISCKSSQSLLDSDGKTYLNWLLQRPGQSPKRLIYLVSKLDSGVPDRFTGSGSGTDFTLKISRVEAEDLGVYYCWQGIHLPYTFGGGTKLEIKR
notes: Mouse hybridoma antibody (Balb/c); also called supernatant from well F9 of plate 40
ratio of DO obtained in TLR3 ELISA to DO obtained in TLR4 ELISA [1]: 10 | binding result [2]: no binding (tested: 10 µg/ml)

Source: patent publication US20110212110A1 (INNATE PHARMA, published 2011)
